Substitutions are numbered along the chain they refer to. Numbers in names are those of the source. Blank lines part the entries; values can stand above or below the binder they belong to.
Key:
[1] = molecular target: hFcγRIIIaV on Jurkat effector cells (human, UniProt P08637 17-254); experiment: cell-based or functional assay
[2] = molecular target: T1, hFcγRIIaH on Jurkat effector cells (human, UniProt P12318 34-317); experiment: cell-based or functional assay
T1 sequence (looked up): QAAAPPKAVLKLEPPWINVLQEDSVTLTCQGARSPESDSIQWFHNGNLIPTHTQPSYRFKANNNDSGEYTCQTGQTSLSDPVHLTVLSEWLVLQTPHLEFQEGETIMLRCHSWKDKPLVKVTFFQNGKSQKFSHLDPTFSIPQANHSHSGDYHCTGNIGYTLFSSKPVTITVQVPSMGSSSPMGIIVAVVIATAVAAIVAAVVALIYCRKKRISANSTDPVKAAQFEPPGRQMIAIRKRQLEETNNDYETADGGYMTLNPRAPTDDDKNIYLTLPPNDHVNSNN

[3] = molecular target: T2, human FcγRIa extracellular domain (human, UniProt P12314 16-292); experiment: SPR; KD of G1d divided by KD of this antibody
T2 construct: extracellular domain; also called hFcγR Ia
T2 sequence (P12314 16-292): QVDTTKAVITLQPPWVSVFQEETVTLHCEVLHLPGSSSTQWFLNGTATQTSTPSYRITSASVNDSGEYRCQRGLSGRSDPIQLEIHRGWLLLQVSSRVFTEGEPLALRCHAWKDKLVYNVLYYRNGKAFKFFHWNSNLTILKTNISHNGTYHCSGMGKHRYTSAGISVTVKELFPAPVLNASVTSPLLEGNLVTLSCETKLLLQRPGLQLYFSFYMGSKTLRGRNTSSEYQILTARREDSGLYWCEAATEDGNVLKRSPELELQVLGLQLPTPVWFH
Procedure: (§1) The extracellular domains of FcγRs were produced by the method described in WO2014104165. The interaction between the produced antibodies and human FcγRs was analyzed using Biacore 8K+ by the method below. For the running buffer, 50 mM Na-Phosphate, 150 mM NaCl, and 0.05% Tween20 (pH 7.4) was used, and measurement was performed at 25° C. The sensor chip used was a Series S SA chip (GE Healthcare) onto which CaptureSelect Human Fab-kappa Kinetics Biotin Conjugate (Thermo Fisher Scientific) was immobilized. An antibody of interest was captured onto this chip, and each FcγR diluted with the running buffer was allowed to interact with it. The chip was regenerated using 10 mM Glycine-HCl (pH 1.5), and repeatedly used to capture antibodies and perform measurement. The dissociation constants KD (mol/L) of each antibody for FcγRs were calculated using Biacore Insight Evaluation Software, with a steady state affinity model for the dissociation constant for FcγRIIb and a 1:1 Langmuir binding model for the dissociation constants for the other FcγRs (Table 2).

[4] = molecular target: T3, human FcγRIIa H extracellular domain (human, UniProt P12318 34-217); experiment: SPR; KD of G1d divided by KD of this antibody
T3 construct: extracellular domain; also called hFcγR IIa H; FcγRIIa allotype H131
T3 sequence (looked up): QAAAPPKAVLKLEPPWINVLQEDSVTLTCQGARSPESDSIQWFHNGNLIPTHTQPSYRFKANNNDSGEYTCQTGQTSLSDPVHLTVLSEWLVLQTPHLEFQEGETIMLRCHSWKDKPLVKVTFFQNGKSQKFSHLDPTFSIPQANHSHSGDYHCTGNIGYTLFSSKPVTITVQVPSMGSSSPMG
Procedure: as §1

[5] = molecular target: T4, human FcγRIIa R extracellular domain (human, UniProt P12318 34-217); experiment: SPR; KD of G1d divided by KD of this antibody
T4 construct: extracellular domain; also called hFcγR IIa R; FcγRIIa allotype R131
T4 sequence (looked up): T3 sequence (looked up) with H134R
Procedure: as §1

[6] = molecular target: T5, human FcγRIIb extracellular domain (human, UniProt P31994 43-217); experiment: SPR; KD of G1d divided by KD of this antibody
T5 construct: extracellular domain; also called hFcγR IIb
T5 sequence (looked up): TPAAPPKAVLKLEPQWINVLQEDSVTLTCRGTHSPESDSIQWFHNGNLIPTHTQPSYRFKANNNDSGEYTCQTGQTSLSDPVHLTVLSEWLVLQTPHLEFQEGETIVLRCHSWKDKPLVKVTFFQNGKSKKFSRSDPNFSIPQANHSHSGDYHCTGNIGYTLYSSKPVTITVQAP
Procedure: as §1

[7] = molecular target: T6, human FcγRIIIa F extracellular domain (human, UniProt P08637 17-208); experiment: SPR; KD of G1d divided by KD of this antibody
T6 construct: extracellular domain; also called hFcγR IIIa F; FcγRIIIa allotype F158
T6 sequence (P08637 17-208): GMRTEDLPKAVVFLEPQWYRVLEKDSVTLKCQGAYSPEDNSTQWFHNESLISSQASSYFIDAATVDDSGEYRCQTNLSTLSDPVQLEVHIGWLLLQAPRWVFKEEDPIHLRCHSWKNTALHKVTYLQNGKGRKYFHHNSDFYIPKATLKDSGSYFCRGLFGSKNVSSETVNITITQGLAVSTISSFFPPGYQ
Procedure: as §1

[8] = molecular target: T7, human FcγRIIIa V extracellular domain (human, UniProt P08637 17-208); experiment: SPR; KD of G1d divided by KD of this antibody
T7 construct: extracellular domain; also called hFcγR IIIa V; FcγRIIIa allotype V158
T7 sequence (P08637 17-208 F176V): as the sequence (P08637 17-208) above, with F160V counted along it
Procedure: as §1

[9] = molecular target: T3, human FcγRIIa H extracellular domain; experiment: SPR; KD for hFcγRIIb divided by KD for this FcγR
Procedure: as §1

[10] = molecular target: T4, human FcγRIIa R extracellular domain; experiment: SPR; KD for hFcγRIIb divided by KD for this FcγR
Procedure: as §1

[11] = molecular target: T6, human FcγRIIIa F extracellular domain; experiment: SPR; KD for hFcγRIIb divided by KD for this FcγR
Procedure: as §1

[12] = molecular target: T7, human FcγRIIIa V extracellular domain; experiment: SPR; KD for hFcγRIIb divided by KD for this FcγR
Procedure: as §1

hFcγRIIIaV on Jurkat effector cells, sequence (P08637 17-254, form in doubt): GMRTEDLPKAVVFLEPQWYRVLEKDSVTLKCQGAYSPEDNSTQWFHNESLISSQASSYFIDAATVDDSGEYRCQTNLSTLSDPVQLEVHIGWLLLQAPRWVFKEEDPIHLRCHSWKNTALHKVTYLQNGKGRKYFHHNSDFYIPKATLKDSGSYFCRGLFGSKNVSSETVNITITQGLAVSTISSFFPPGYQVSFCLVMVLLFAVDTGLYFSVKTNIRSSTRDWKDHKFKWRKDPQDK

EC50 of reporter gene induction (ADCC Reporter Bioassay, Hepa1-6/hEREG target cells) [1]: 3.7 ng/mL
EC50 of reporter gene induction (ADCP Reporter Bioassay, Hepa1-6/hEREG target cells) [2]: 14.9 ng/mL
Relative value to KD between G1d and hFcgRs [3]: 6.2 times
Relative value to KD between G1d and hFcgRs [4]: 16.4 times
Relative value to KD between G1d and hFcgRs [5]: 24.7 times
Relative value to KD between G1d and hFcgRs [6]: 8 times
Relative value to KD between G1d and hFcgRs [7]: 44.7 times
Relative value to KD between G1d and hFcgRs [8]: 15.1 times
A/I ratio (KD for FcγRIIb divided by KD for each FcγR) [9]: 18.2 ratio
A/I ratio (KD for FcγRIIb divided by KD for each FcγR) [10]: 18.6 ratio
A/I ratio (KD for FcγRIIb divided by KD for each FcγR) [11]: 18.9 ratio
A/I ratio (KD for FcγRIIb divided by KD for each FcγR) [12]: 52.6 ratio
B1: EGL-GASDIE (H240-Kn037/L73-k0//H240-H1036/L73-k0) (antibody, human IgG1, kappa)
heavy 1: QDQLVQSGAEVKKPGASVKVSCKASGFNIKDTYIQWVRQAPGQGLEWMGRIDPLRKQTKYREKFEGRVTITADTSTNTAYMELSSLRSEDTAVYYCVRSGREFDYWGQGTLVTVSSASTKGPSVFPLAPSSKSTSGGTAALGCLVKDYFPEPVTVSWNSGALTSGVHTFPAVLQSSGLYSLSSVVTVPSSSLGTQTYICNVNHKPSNTKVDKKVEPKSCDKTHTCPPCPAPELLAGPDVFLFPPKPKDTLMISRTPEVTCVVVDVSHEDPEVKFNWYVDGVEVHNAKTKPREEQYNSTYRVVSVLTVLHQDWLNGKEYKCKVSNKALPAPEEKTISKAKGQPREPQVCTLPPSRDELTKNQVSLWCLVKGFYPSDIAVEWESNGQPENNYKTTPPVLDSDGSFFLYSKLTVDKSRWQQGNVFSCSVMHEALHNHYTQKSLSLSP
heavy 2: B1 heavy 1 with C348Y, D355C, W365S, L367A, Y406V
light: DIQMTQSPSSLSASVGDRVTITCRASQDIHKYIAWYQQKPGQAPRLLIQYTSTLQPGVPSRFSGSGSGTDYTFTISSLQPEDIATYYCLQYEQLRTFGGGTKVEIKRTVAAPSVFIFPPSDEQLKSGTASVVCLLNNFYPREAKVQWKVDNALQSGNSQESVTEQDSKDSTYSLSSTLTLSKADYEKHKVYACEVTHQGLSSPVTKSFNRGEC
notes: G236A/S239D/I332E in both heavy chains; Kn037 with Y349C/T366W, H1036 with D356C/T366S/L368A/Y407V

EC50 of reporter gene induction (ADCC Reporter Bioassay, Hepa1-6/hEREG target cells) [1]: 0.107 ng/mL
EC50 of reporter gene induction (ADCP Reporter Bioassay, Hepa1-6/hEREG target cells) [2]: 41.9 ng/mL
Relative value to KD between G1d and hFcgRs [3]: 3.4 times
Relative value to KD between G1d and hFcgRs [4]: 2.7 times
Relative value to KD between G1d and hFcgRs [5]: 1.5 times
Relative value to KD between G1d and hFcgRs [6]: 1.4 times
Relative value to KD between G1d and hFcgRs [7]: 1290 times
Relative value to KD between G1d and hFcgRs [8]: 566 times
A/I ratio (KD for FcγRIIb divided by KD for each FcγR) [9]: 17.3 ratio
A/I ratio (KD for FcγRIIb divided by KD for each FcγR) [10]: 6.6 ratio
A/I ratio (KD for FcγRIIb divided by KD for each FcγR) [11]: 3160 ratio
A/I ratio (KD for FcγRIIb divided by KD for each FcγR) [12]: 11400 ratio
B2: EGL-ART10 (H240-Kn494/L73-k0//H240-H1514/L73-k0) (antibody, human IgG1, kappa)
heavy 1: B1 heavy 1 with L233F, L234Q, A235W, D238M, T249V, H267D, D269E, S297A, T306P
heavy 2: QDQLVQSGAEVKKPGASVKVSCKASGFNIKDTYIQWVRQAPGQGLEWMGRIDPLRKQTKYREKFEGRVTITADTSTNTAYMELSSLRSEDTAVYYCVRSGREFDYWGQGTLVTVSSASTKGPSVFPLAPSSKSTSGGTAALGCLVKDYFPEPVTVSWNSGALTSGVHTFPAVLQSSGLYSLSSVVTVPSSSLGTQTYICNVNHKPSNTKVDKKVEPKSCDKTHTCPPCPAPELLGGPSVFLFPPKPKDVLMISRTPEVTCVVVDVSHEEPEVKFNWYVDGVEVHNAKTKPREEQYNATYRVVSVLPVLHQDWLNGKEYKCKVSNDALPAPEEETISKAKGQPREPQVYTLPPSRCELTKNQVSLSCAVKGFYPSDIAVEWESNGQPENNYKTTPPVLDSDGSFFLVSKLTVDKSRWQQGNVFSCSVMHEALHNHYTQKSLSLSP
light: B1 light
notes: Kn494: L234F/L235Q/G236W/S239M/T250V/H268D/D270E/S298A/T307P/I332E + Y349C/T366W; H1514: T250V/D270E/S298A/T307P/K326D/I332E/K334E + D356C/T366S/L368A/Y407V

EC50 of reporter gene induction (ADCC Reporter Bioassay, Hepa1-6/hEREG target cells) [1]: 0.304 ng/mL
EC50 of reporter gene induction (ADCP Reporter Bioassay, Hepa1-6/hEREG target cells) [2]: 85 ng/mL
Relative value to KD between G1d and hFcgRs [3]: 3.4 times
Relative value to KD between G1d and hFcgRs [4]: 3.1 times
Relative value to KD between G1d and hFcgRs [5]: 1 times
Relative value to KD between G1d and hFcgRs [6]: 0.5 times
Relative value to KD between G1d and hFcgRs [7]: 578 times
Relative value to KD between G1d and hFcgRs [8]: 158 times
A/I ratio (KD for FcγRIIb divided by KD for each FcγR) [9]: 60.3 ratio
A/I ratio (KD for FcγRIIb divided by KD for each FcγR) [10]: 12.8 ratio
A/I ratio (KD for FcγRIIb divided by KD for each FcγR) [11]: 4310 ratio
A/I ratio (KD for FcγRIIb divided by KD for each FcγR) [12]: 9720 ratio
B3: EGL-ART12 (H240-Kn498/L73-k0//H240-H1518/L73-k0) (antibody, human IgG1, kappa)
heavy 1: QDQLVQSGAEVKKPGASVKVSCKASGFNIKDTYIQWVRQAPGQGLEWMGRIDPLRKQTKYREKFEGRVTITADTSTNTAYMELSSLRSEDTAVYYCVRSGREFDYWGQGTLVTVSSASTKGPSVFPLAPSSKSTSGGTAALGCLVKDYFPEPVTVSWNSGALTSGVHTFPAVLQSSGLYSLSSVVTVPSSSLGTQTYICNVNHKPSNTKVDKKVEPKSCDKTHTCPPCPAPEFQWGPMVFLFPPKPKDVLMISRTPEVTCVVVDVSDEEPEVKFNWYVDGVEVHNAKTKPREEQYNATYRVVSVLPVLHQDWLNGKEYKCKVSNKALPMPIEKTISKAKGQPREPQVCTLPPSRDELTKNQVSLWCLVKGFYPSDIAVEWESNGQPENNYKTTPPVLDSDGSFFLYSKLTVDKSRWQQGNVFSCSVMHEALHNHYTQKSLSLSP
heavy 2: B2 heavy 2 with A329M, E331I
light: B1 light
notes: Kn498: L234F/L235Q/G236W/S239M/T250V/H268D/D270E/S298A/T307P/A330M + Y349C/T366W; H1518: T250V/D270E/S298A/T307P/K326D/A330M/K334E + D356C/T366S/L368A/Y407V
